Columns and labels:
rHuPH20 [1] = biological target: T1, rHuPH20 (Homo sapiens, UniProt P38567); assay: Determination of hyaluronidase activity of rHuPH20, turbidimetric assay (Example 2, variant not specified); type: biochemical; conditions: for rHuPH20 enzymatic activity: 2-8° C.
T1 construct: made in house; host or cells: CHO cells (DG44 CHO, HZ24 plasmid, clone 2B2)
T1 sequence (P38567 36-482): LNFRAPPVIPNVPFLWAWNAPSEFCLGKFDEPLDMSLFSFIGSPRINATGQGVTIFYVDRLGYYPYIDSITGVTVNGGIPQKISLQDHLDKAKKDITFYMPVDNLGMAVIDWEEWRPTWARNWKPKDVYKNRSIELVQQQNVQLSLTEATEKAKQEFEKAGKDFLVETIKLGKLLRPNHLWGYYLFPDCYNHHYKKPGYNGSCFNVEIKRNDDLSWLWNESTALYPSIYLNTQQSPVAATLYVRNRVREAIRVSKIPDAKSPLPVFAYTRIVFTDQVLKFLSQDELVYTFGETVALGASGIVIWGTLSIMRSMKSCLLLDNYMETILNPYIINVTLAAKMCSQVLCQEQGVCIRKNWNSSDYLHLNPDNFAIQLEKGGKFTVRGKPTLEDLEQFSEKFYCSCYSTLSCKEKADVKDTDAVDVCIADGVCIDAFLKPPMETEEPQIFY

rHuPH20 [2] = biological target: T1, rHuPH20; assay: Differential scanning calorimetry: Tm of rHuPH20; type: physicochemical; conditions: in the presence of […] m-cresol

B1: rHuPH20: secreted soluble recombinant human PH20 expressed in CHO cells; nucleic acid encodes amino acids 36-482 of SEQ ID NO:1 (protein, listed as Homo sapiens)
chain: T1 sequence (P38567 36-482)
modifications: precursor human PH20
Question: What does the source list for B1?
Answer: rHuPH20 enzymatic activity (rHuPH20 [1]; 5 Months, pH 7.0, NaCl 50 mM): 494.4796; rHuPH20 enzymatic activity (rHuPH20 [1]; 5 Months, pH 7.0, NaCl 80 mM): 575.3274; rHuPH20 enzymatic activity (rHuPH20 [1]; 5 Months, pH 7.0, NaCl 110 mM): 615.3546; rHuPH20 enzymatic activity (rHuPH20 [1]; 5 Months, pH 7.0, NaCl 140 mM): 582.4274; rHuPH20 enzymatic activity (rHuPH20 [1]; 5 Months, pH 7.2, NaCl 50 mM): 481.6035; rHuPH20 enzymatic activity (rHuPH20 [1]; 5 Months, pH 7.2, NaCl 80 mM): 566.2521; rHuPH20 enzymatic activity (rHuPH20 [1]; 5 Months, pH 7.2, NaCl 110 mM): 593.2027; rHuPH20 enzymatic activity (rHuPH20 [1]; 5 Months, pH 7.2, NaCl 140 mM): 585.9948; rHuPH20 enzymatic activity (rHuPH20 [1]; 5 Months, pH 7.4, NaCl 50 mM): 526.6628; rHuPH20 enzymatic activity (rHuPH20 [1]; 5 Months, pH 7.4, NaCl 80 mM): 564.7769; rHuPH20 enzymatic activity (rHuPH20 [1]; 5 Months, pH 7.4, NaCl 110 mM): 618.3856; rHuPH20 enzymatic activity (rHuPH20 [1]; 5 Months, pH 7.4, NaCl 140 mM): 585.9813; rHuPH20 enzymatic activity (rHuPH20 [1]; 5 Months, pH 7.6, NaCl 50 mM): 508.0571; rHuPH20 enzymatic activity (rHuPH20 [1]; 5 Months, pH 7.6, NaCl 80 mM): 546.4209; rHuPH20 enzymatic activity (rHuPH20 [1]; 5 Months, pH 7.6, NaCl 110 mM): 581.6326; rHuPH20 enzymatic activity (rHuPH20 [1]; 5 Months, pH 7.6, NaCl 140 mM): 594.6197; rHuPH20 enzymatic activity (rHuPH20 [1]; 9 Months, pH 7.0, NaCl 50 mM): 436.5115; rHuPH20 enzymatic activity (rHuPH20 [1]; 9 Months, pH 7.0, NaCl 80 mM): 513.9692; rHuPH20 enzymatic activity (rHuPH20 [1]; 9 Months, pH 7.0, NaCl 110 mM): 551.0218; rHuPH20 enzymatic activity (rHuPH20 [1]; 9 Months, pH 7.0, NaCl 140 mM): 554.6513; rHuPH20 enzymatic activity (rHuPH20 [1]; 9 Months, pH 7.2, NaCl 50 mM): 451.8324; rHuPH20 enzymatic activity (rHuPH20 [1]; 9 Months, pH 7.2, NaCl 80 mM): 518.0740; rHuPH20 enzymatic activity (rHuPH20 [1]; 9 Months, pH 7.2, NaCl 110 mM): 553.1847; rHuPH20 enzymatic activity (rHuPH20 [1]; 9 Months, pH 7.2, NaCl 140 mM): 536.7846; rHuPH20 enzymatic activity (rHuPH20 [1]; 9 Months, pH 7.4, NaCl 50 mM): 466.1871; rHuPH20 enzymatic activity (rHuPH20 [1]; 9 Months, pH 7.4, NaCl 80 mM): 509.9032; rHuPH20 enzymatic activity (rHuPH20 [1]; 9 Months, pH 7.4, NaCl 110 mM): 560.4847; rHuPH20 enzymatic activity (rHuPH20 [1]; 9 Months, pH 7.4, NaCl 140 mM): 542.4534; rHuPH20 enzymatic activity (rHuPH20 [1]; 9 Months, pH 7.6, NaCl 50 mM): 464.8964; rHuPH20 enzymatic activity (rHuPH20 [1]; 9 Months, pH 7.6, NaCl 80 mM): 515.3382; rHuPH20 enzymatic activity (rHuPH20 [1]; 9 Months, pH 7.6, NaCl 110 mM): 531.9202; rHuPH20 enzymatic activity (rHuPH20 [1]; 9 Months, pH 7.6, NaCl 140 mM): 523.5385; time rHuPH20 stable (rHuPH20 [1]; 5° C., […] m-cresol, […] phenol, pH 7.0-7.6, 50-140 mM NaCl): 12 months; reduction of Tm of rHuPH20 by DSC (rHuPH20 [2]): about 2 °C

Reference: patent publication US20130011378A1, “Stable formulations of a hyaluronan-degrading enzyme” (priority 2011, published 2013)
